# The DeepSol protein solubility set
# Assay: soluble on expression in E. coli; label from the status in PepcDB or PDB records
row,Sequence,soluble on expression in E. coli
1,MGSDKIHHHHHHMNYVKSKQRVADHGEVFTPAWLVEAMIDLVKDETERIDARFLEPACGSGNFLVPILQRKLAAVERKFGKSNFEKQHYALFAVMCTYGIELLADNIAECRANMLEIFADYLTLDESDELYRAAIYVLSQNLVHGDALKMRTSDGQPIAFAEWGYLGKGKFQRRDFRLDSLAMSSTFSVEGSLFAHLGKHEIFTPTRTYPPMTVSELAARAAEANL,not soluble
2,MELIDKFITLHDQLRKDLNLASLCISKAKTTHGIGLFSVNSVDTHDLEPSIRLDTKNGKFVLLKNSENEEEKNDKKNKKKKDENKSEKKNSGESEDVEEAKKTFSGQFRPFGVLEPAAAKDARKIYRNSIQTILDLVSTQQSILAKSRQLVEDC,not soluble
3,MKGIMVQGTASDVGKSLICTALCRIFARRGYKVTPFKSQNMSNNSYITVEGLEIGRAQGIQAEAAMEEASVYMNPILLKPRNDREAEIVCFGQAVDTVSGVKYRDGFYKRGLEAIKQALATLSQSFDMVVIEGAGSPVEVNLNDRELVNMKVAELADVPVILVADIERGGVFASLYGTLELLQPNERKRVVGIIVNKFRGDPELFSSGVQWIEQHLGVPVLGVLPHLPGVRIEGEDSLSKGQVTSVLPRDQSIDIAVLDLPYLSNYTDLEPFRYEEDVAIRFVSSVDALGRPDAIILPGTKSTFHDLQILKEKGFKERLHEYVTTDGTVVAICGGFQMLGHRLIDVAGSDTGIKGATIDGLDLAPVETRFAEKKKTVRSLGQLLHPFGTAKDIYGFEIHLGETDIVDPSIPAFLRVGNHTDGVYLHEGRLIGTYFHHLFFNDDFRSGWLNTLRRKKGLRERPTVELEKCRRASYDQLADEVERVLHVDSLLEKMERWGETS,soluble
4,MRLIKVIITSQKEYSMKKLLSLSAITLSVLAPSAFAAQEVNVYSYRQPFLIEPMFAEFTKETGIKVNVKFAKEGIAEKLAQEGEYSPADVILTSEFSRLFELTEKGLTQPLDSKVIEENIPAQYRDSGDEWFALTQRTRSVYSSRDRLGKLGDDFDYMDLAKPEFKGKICTRSGKHPYNIALVASIIANHGEAEAKAWLEGVKANLARKPQGNDRDQVRAIKEGLCDVSLGNSYYLGAMLNDQEQKSWAEAVYINFPGQNVQGTHVNVSGMAMAKYSPNRENAQKLMEFLTGETAQKMYAEVNYEYPVKPGVQRSALVESWGEFKADSLPLEKIADNNAAAIKLIDEVKFDL,not soluble
5,MSLRVLFCSSEIYPYAKTGGLADFSFCLIKYLKKYGVKVKGVMPYYKTLKAENLRKTDKGVTLNLNGKDYTFEVYESEDCYFLRNDELFGRDYIYGPPGWGYEDNDIRFGGFSRAVSELISTGQLEADVVHANDWQTALIPLFLKEVFKTPVKTVFTIHNLAYQGLFPKETVERVGIPPYLFHMEAVEFWGLVNFMKGGIVFSDLITTVSPTYAKEIQTQEYGYGLEGVLKKYSYKLRGILNGIDYEVWNPEKDKYIYQNYSLRNYSKKFKNKEFLSKELGIEAEKPLISFINRFTHQKGVELILNCAEEMSKLNANFVFLGTGEYENAFLDVSKIYKNFKVFAEFNEGFARKLYASSDFILMPSYFEPCGLTQMIGMRYGCVPIVRKTGGLRDTVKDISEGGYGITFEEPSKETFLCSLKRAIELYENAKKFRNSVKIVMSLDFSCDRMTKEYIECYEEVQSHQEGHHHHHH,soluble
6,MADKSAYMSAGGYGSGYMGANASSSGYAREDYAQGGAGGSGNQNQGGSGGNTNPGGQVFKARTDQSCYLGP,not soluble
7,AIAVQKLENIPALVHLKEKNIISIRVFLQGRSIVGIQLNYNDNEDGQVYGSTAGKEMVARLSKEEHIIGVEGTYNPSALTQIIFTTNQPRQLMVGYHVGNYQYSSYPDDPSLVLKGACVSWRAGGIKSILFLWGSENSSCVKYGHSG,soluble
8,AAKEEADSRISPGNIFEEKAKFLVMMESSIYAAKRGDALIAQILILAGRLSKNEAPKEALLFMEKTITGEIDLSVAKNLLIAYMRIRREEKQRDLNSVKNDDAIPSDINIDDLTNT,not soluble
9,MSLNVLIVDDEANIRKTLTVFMESRGHRVKAVSNSRDACAEAEQQVFDLAFVDIRLGIESGLDLERSLLNACPWIKIVIITAYASIETAVEAMKRGASDYLAKPFTPDQLESITARLAEVCAMEMRIASLQEDLNRMHPEVYFTSRYPSMQRAIELSRQVALSDALVLLRGPSGTGKTVLARSIHNWSQRKEEPFGVVSCPSLSTELLESELFGHVKGSFPGAVRDKPGRVTLCEGGSLFLDEIGDLPLSIQAKLLRFIQDREYERIGDHQTRKADVRIIAATNTNLDLAVREGEFREDLFYRLNGIQIDLPTLAERPNDVEQLALNMLQFFAAQNLKNFDGFTEEARTALRTYSWPGNIRELRNVMERAVILGKNGQIGIELLPDSIVAKTHPVTEGHHHHHH,soluble
10,MELFKDIKNLGKLVRLERIFNRESEKTVIVPMDHGVSNGPIKGLIDIRKTVNDVAEGGANAVLLHKGIVRHGHRGYGKDVGLIIHLSGGTAISPNPLKKVIVTTVEEAIRMGADAVSIHVNVGSDEDWEAYRDLGMIAETCEYWGMPLIAMMYPRGKHIQNERDPELVAHAARLGAELGADIVKTSYTGDIDSFRDVVKGCPAPVVVAGGPKTNTDEEFLQMIKDAMEAGAAGVAVGRNIFQHDDVVGITRAVCKIVHENADVEEALKEIRKK,soluble
11,MGSDKIHHHHHHAKKVKGNGDIITKEISVRDYSAIKVGSTAMGYSDSWFSLFSRGGNPSYVFGYTQGESASLRITIDENLYPYINVQVKNEELSISTENGTQLSPTRFKIEGTSKKLEKIKMSGCMDFVLRSALSGDDLEIIATRGSDVKMEQPINVSNCIIEATSGSDIIINDLTTRIIRGRASGGSDLKLTGKAENGEYSASGGSDIKAYDLILNQLECSASGGSDIYTHVTDYIKASASGGSDVHYKGSARSDTSTSGGSDIIKEGN,not soluble
12,MVKINITAETNGFVLLEHGEVFIKNNNDVSLKLIPNEQEVPLIINIEFANKGGRIASVDRNIVNDKLVFTCNNFQSEPGNWGGIIEPMLIAEMDDCNLYLSFLVWNIDTTNYNRLLNYSFWLKKK,not soluble
13,MSLTWVSVEAKIDYELDPTVLFHLTEENAGDRFYYKKNDNKTSFFGYHAITRFKNDFENKQSIFREWQKYKSDIELIHPSSDKHHLKICGGFQFSMHKSGDEWREFGINHFILPEVLITMENGVSYITYTVKAEQFEIEQFKALIAHLTQNTIDSEFEIGNIKRIEDIYKDEWRDLVKDTIDVLDEHKKIVLARKRLVMFDKNINIPYILQKASQGEHNSYLFVLESQDSIFFSQTPEQLMEVNNGILSTKAVAGTIKRTHQDEVDKENIQAFLNDDKNLNEHRFVVESILNDIAPYVRDITFNETPQILTNDHLYHLYTKIKGQLENDSYIGLLDNLHPTPALGGYPKAEAIEYIEQNEFGTRGLYGAPVGYIDMNDDCEFIVAIRSMLIKKNQATLFAGCGIVKNSDADSEVEETAVKFNPMMKALGVEEYEGHHHHHH,not soluble
14,MGSDKIHHHHHHMSVVIGYYGKNGAVIAGDKRNLLFNGIESNRAKLEEVLYSGEIKNDEELFKKASEFEVTVHINDTREKVKSLGNLLSGEVVSIGKDSKRRRMYLTKEKCAIIDIENDQITNKSVKTGSGIVVFGNRYVKHFVESEIKKHVQKLLKMSAREIRDLFEKILKNIENATLSDTFEYYVVEAGEPEFEKAVNKDLDDLFNYRHDLSIKMAEMQILTMIAEKIVKIGDVGVIKNGTLVLYDEFLAINKICPEPEIYSEIEITGEFIEGDIITIDNESLKVKRTGSPVAVQKIICKK,not soluble
15,MMNADCKTAFGAIEESLLWSAEQRAASLAATLACRPDEGPVWIFGYGSLMWNPALEFTESCTGTLVGWHRAFCLRLTAGRGTAHQPGRMLALKEGGRTTGVAYRLPEETLEQELTLLWKREMITGCYLPTWCQLDLDDGRTVNAIVFIMDPRHPEYESDTRAQVIAPLIAAASGPLGTNAQYLFSLEQELIKLGMQDDGLNDLLVSVKKLLAENYPDGVLRPGFALEHHHHHH,soluble
16,MKICAVVVTYNRKDLLVECLEALRRQTGPLDAIYIIDNASTDGTPHLLMEGGYIDDPDGSVKNLPDHHGRSLKIVYVRLNENTGGAGGFYKGVRRAFHDEYDWIWLMDDDVEPEEYTLEKLLKASERIPEDVSAVAPVRFFQGSLFISETKTFNFRNPLKHFTYDFITDDDLKEEYFKISAISFEGLLIKREAIERIGFPDKSLFIIADDTDYAIRLRDYGPIYMVSGARLIKKVAAEPDFNWKGFYHLRNVIYLDRKYGENILVRYLRPLRTLIIVTYQCLKYKPSGFKYLLKAFWEGYTLKRGKTVKPGEFLEHHHHHH,soluble
17,MAYKKVLLAVNVYENADIVINSAVDFAKKNNTQVLKVVTVIDCVAPFAPSIVDFQHSIEQEAKEALDKLVTKISGIKVEHEVLVGNPAAEIVEYAEESNCDVIVLGSHATHGINLLLGSVANTVLHKAKCDVLTVRVNDDENADSKAHSYKRLLVPTDLENDSYVVVDKAKDIAKLYSAKIDTAFVIPNDSISLMTYETDKVETTLDKFAEKNGITGEKSVMIGGISNSLLEKAAENKNDLIVVGSHRRGAIGRFFLGSTANSILHQANVDVLVVRLK,soluble
18,SLSSPGDIPAEDFADHVRKNERDSNCGFADEYQQLSLVGHSQSQMVASASENNAKNRYRNVLPYDWSRVPLKPIHEEPGSDYINASFMPGLWSPQEFIATQGPLPQTVGDFWRLVWEQQSHTLVMLTNCMEAGRVKCEHYWPLDSQPCTHGHLRVTLVGEEVMENWTVRELLLLQVEEQKTLSVRQFHYQAWPDHGVPSSPDTLLAFWRMLRQWLDQTMEGGPPIVHCSAGVGRTGTLIALDVLLRQLQSEGLLGPFSFVRKMRESRPLMVQTEAQYVFLHQCICGSSNSQPRPQPRRKSRMRMSKTSSTRTWPPSRPTSWRSK,soluble
19,QITLKESGPGIVQPSQPFRLTCTFSGFSLSTSGIGVTWIRQPSGKGLEWLATIWWDDDNRYNPSLKSRLTVSKDTSNNQAFLNMMTVETADTAIYYCAQSAITSVTDSAMDHWGQGTSVTVSSAKTTPPSVYPLAPGSAAQTNSMVTLGCLVKGYFPEPVTVTWNSGSLSSGVHTFPAVLQSDLYTLSSSVTVPSSTWPSETVTCNVAHPASSTKVDKKIVPADC,soluble
20,MAHHHHHHMELCLYNSKNGYLEALLRGFRSSFLTPEEYKKLTEVDTLEDLKSVLEDTDYGSFMMDEPSPIAVTTIAQKCKEKMAHEFNYIRAQAEEPLRTFLDYIAKEKMIDNVIILIHGTLNKKPAEELLSRVDPLGYFPQMKAITTMDVQNSHDDVLKVLLIETPIGTYFDKYISANASNEKNNVTTILNEMDIEILRNTLKKAWLEDFYDFIRELGGKTEEVMGHILKSVADFRVLSVTLNTINSSLSLELQKDRNDMFPCFGYLYPEGTDRIRKCWNNETVQAALENYPTYYNLYEECKQFYMKNENMQDSKIVDHKVKSLEDLLYVKLVKLCETAFDQHCHFGIFYAWVKLKEQEIRNIVWISDMILMNRKDCIDSIIPIFEPQI,not soluble
21,MLGIVIATHGALSDGAKDAATVIMGATENIETVNLNSGDDVQALGGQIKTAIENVQQGDGVLVMVDLLSASPYNQAVLVINELEPALQKKIFVVSGTNLPMVLEAINHQLLGTPIAEAAQAIVAQGKESVQAWDISMTSFEDEEDEDDDF,soluble
